Assay results published in the supplement of paper PMC10201428.
± gives the standard deviation of the averaged measurements.

Experiments:
[1] = tested on: VchCAST RNA-guided transposition machinery (E. coli BL21(DE3) host, lacZ target); test: relative integration efficiency (T-LR orientation) vs wild-type transposon end (log2 (normalized fold change)); transposon end mutated: right end (5 bp flank + 75 bp right end); higher = more efficient transposition
Summary of the method: (§1)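 Each barcoded pool, 1549 left-end or 1849 right-end transposon variants in a pUC57 mini-transposon donor, went into E. coli BL21(DE3) with a T7-driven effector plasmid (CRISPR array, tniQ-cas8-cas7-cas6, tnsA-tnsB-tnsC). Plates contained 0.1 mM IPTG and were held at 37°C for 18 h. Input plasmids and genomic integration junctions were PCR-amplified and read by Illumina sequencing, with two biological output replicates and four reference barcodes. Relative integration efficiency is the fold change of output over input barcode abundance, normalised to the reference barcodes and log-transformed.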

[2] = tested on: VchCAST RNA-guided transposition machinery (E. coli BL21(DE3) host, lacZ target); test: relative integration efficiency (T-RL orientation) vs wild-type transposon end (log2 (normalized fold change)); transposon end mutated: right end (5 bp flank + 75 bp right end); higher = more efficient transposition
Summary of the method: as §1

| Sequence | relative integration efficiency (log2) [1] | relative integration efficiency (log2) [2] |
| --- | --- | --- |
| ACATTTGTTGATACAACCATAAAATGATCATTACCCCCATCAATTGATAATTATCACACCCAATTTAACTATAACGCTCTGATCATAGTCAGACCAACATTGCTACGACCCGTATTCGCACCGACAC | -0.291 ± 0.3 | -3.35 ± 0.24 |
| ACATTTGTTGATACAACCATAAAATGATCATTACCCCCATCAATTGATAATTATCACACCCCATTTAACTATAACGCTCTGATCATAGTCAGACCAACATTGCTACGACCCGTATTCGCACCGACAC | -0.533 ± 0.18 | -3.74 ± 0.21 |
| ACATTTGTTGATACAACCATAAAATGATCATTACCCCCATCAATTGATAATTATCCCACCCAATTTAACTATAACGCTCTGATCATAGTCAGACCAACATTGCTACGACCCGTATTCGCACCGACAC | 0.227 ± 0.14 | -3.71 ± 0.29 |
| ACATTTGTTGATACAACCATAAAATGATCATTACCCCCATCAATTGATAATTATCCCACCCCATTTAACTATAACGCTCTGATCATAGTCAGACCAACATTGCTACGACCCGTATTCGCACCGACAC | -0.338 ± 0.22 | -3.97 ± 0.23 |
| ACATTTGTTGATACAACCATAAAATGATCATTCACCCATAAATTGATAATTATCACACCCACATTTAACTATAACGCTCTGATCATAGTCAGACCAACATTGCTACGACCCGTATTCGCACCGACAC | 0.654 ± 0.11 | -3.25 ± 0.26 |
| ACATTTGTTGATACAACCATAAAATGATCATTCACCCCTAAATTGATAATTATCACACCCACATTTAACTATAACGCTCTGATCATAGTCAGACCAACATTGCTACGACCCGTATTCGCACCGACAC | -0.712 ± 0.069 | -4.31 ± 0.082 |
| ACATTTGTTGATACAACCATAAAATGATCCGGACACCCATAAATTGATAATTATCACACCCATAAATTGATATTGCCTCTGATCATAGTCAGACCAACATTGCTACGACCCGTATTCGCACCGACAC | -0.898 ± 0.013 | -1.23 ± 0.15 |
| ACATTTGTTGATACAACCATAAAATGATCCGGCACAAACGCCCGGTCGCCGGCGACACAAACGCCCGGTCGCGGTAAGAGGATCATAGTCAGACCAACATTGCTACGACCCGTATTCGCACCGACAC | 0.37 ± 0.064 | -2.68 ± 0.12 |
| ACATTTGTTGATACAACCATAAAATGATCCGGCCACCCATAAATTGATCCGGCTCACACCCATAAATTGATCGGTACTCTGATCATAGTCAGACCAACATTGCTACGACCCGTATTCGCACCGACAC | -0.827 ± 0.14 | -2.73 ± 0.41 |
| ACATTTGTTGATACAACCATAAAATGATCCTTACACCCATAAATTGATAATTATCACACCCATAAATTGATATTGCCTCTGATCATAGTCAGACCAACATTGCTACGACCCGTATTCGCACCGACAC | -0.545 ± 0.46 | -1.03 ± 0.14 |
| ACATTTGTTGATACAACCATAAAATGATTATTACACCCATAAATTGATAATAATGACACCGAATTTAACTATAACGCTCTGATCATAGTCAGACCAACATTGCTACGACCCGTATTCGCACCGACAC | 2.95 ± 0.061 | -0.616 ± 0.36 |
| ACATTTGTTGATACAACCATAAAATGATTATTACACCCATAAATTGATAATGATGACACCGAATTTAACTATAACGCTCTGATCATAGTCAGACCAACATTGCTACGACCCGTATTCGCACCGACAC | 2.38 ± 0.12 | -1.31 ± 0.35 |
| ACATTTGTTGATACAACCATAAAATGATTATTACACCCATAAATTGATAATTGTGACACCGAATTTAACTATAACGCTCTGATCATAGTCAGACCAACATTGCTACGACCCGTATTCGCACCGACAC | 2.3 ± 0.095 | -1.18 ± 0.23 |
| ACATTTGTTGATACAACCATAAAATGATTATTACACCCATAAATTGATTATTATCACACCCATAAATTGATTTTGCCTCTGATCATAGTCAGACCAACATTGCTACGACCCGTATTCGCACCGACAC | 0.0804 ± 0.34 | -0.91 ± 0.14 |
| ACATTTGTTGATACAACCATAAAATGATTATTACACCCATTAATTGATAATTATCACACCCAATTTAACTATAACGCTCTGATCATAGTCAGACCAACATTGCTACGACCCGTATTCGCACCGACAC | 2.31 ± 0.036 | -1.4 ± 0.34 |
| ACATTTGTTGATACAACCATAAAATGATTTAAACACCCATAAATTGATAATTATCACACCCATAAATTGATATTGCCTCTGATCATAGTCAGACCAACATTGCTACGACCCGTATTCGCACCGACAC | -0.234 ± 0.29 | -0.3814 ± 0.0024 |

| Sequence | relative integration efficiency (log2) [1] | relative integration efficiency (log2) [2] |
| --- | --- | --- |
| ACATTTGTTGATACAACCATAAAATGATTTAATCACCCATAAATTGATTTAATTCACACCCATAAATTGATTAACGCTCTGATCATAGTCAGACCAACATTGCTACGACCCGTATTCGCACCGACAC | -0.00841 ± 0.34 | -1.13 ± 0.18 |
| ACATTTGTTGATACAACCATAAAATGATTTTTACACCCATAAATTGATAATTATCACACCCATAAATTGATATTGCCTCTGATCATAGTCAGACCAACATTGCTACGACCCGTATTCGCACCGACAC | 0.183 ± 0.26 | -0.483 ± 0.081 |
| ACATTTGTTGATACAACCATAAAATGCGAATTACACCCATAAATTGATAATTATCACACCCATAAATTGATATTGCCTCTGATCATAGTCAGACCAACATTGCTACGACCCGTATTCGCACCGACAC | -0.35 ± 0.095 | -0.945 ± 0.22 |
| ACATTTGTTGATACAACCATAAAATGCGCCGGCACAAACGCCCGGTCGCCGGCGACACAAACGCCCGGTCGCGGTAAGAGGATCATAGTCAGACCAACATTGCTACGACCCGTATTCGCACCGACAC | -0.733 ± 0.15 | -3.75 ± 0.078 |
| ACATTTGTTGATACAACCATAAAATGCGCCGGCCACCCATAAATTGCGCCGGCTCACACCCATAAATTGCGCGGTACTCTGATCATAGTCAGACCAACATTGCTACGACCCGTATTCGCACCGACAC | -3.06 ± 0.22 | -5.16 ± 0.24 |
| ACATTTGTTGATACAACCATAAAATGCGCCTTACACCCATAAATTGATAATTATCACACCCATAAATTGATATTGCCTCTGATCATAGTCAGACCAACATTGCTACGACCCGTATTCGCACCGACAC | -1.01 ± 0.31 | -1.4 ± 0.083 |
| ACATTTGTTGATACAACCATAAAATGCTAATTACACCCATAAATTGCTAATTATCACACCCATAAATTGCTATTGCCTCTGATCATAGTCAGACCAACATTGCTACGACCCGTATTCGCACCGACAC | -0.567 ± 0.21 | -1.55 ± 0.13 |
| ACATTTGTTGATACAACCATAAAATGGTAATTACACCCATACATTGATAATTATCACACCCAATTTAACTATAACGCTCTGATCATAGTCAGACCAACATTGCTACGACCCGTATTCGCACCGACAC | 0.71 ± 0.05 | -2.58 ± 0.27 |
| ACATTTGTTGATACAACCATAAAATGGTAATTACACCCCTAAATTGATAATTATCACACCCAATTTAACTATAACGCTCTGATCATAGTCAGACCAACATTGCTACGACCCGTATTCGCACCGACAC | 0.104 ± 0.26 | -3.07 ± 0.34 |
| ACATTTGTTGATACAACCATAAAATGGTAATTACACCCCTACATTGATAATTATCACACCCAATTTAACTATAACGCTCTGATCATAGTCAGACCAACATTGCTACGACCCGTATTCGCACCGACAC | -0.856 ± 0.38 | -3.67 ± 0.066 |
| ACATTTGTTGATACAACCATAAAATGGTAATTCCACCCATAAATTGATAATTATCACACCCAATTTAACTATAACGCTCTGATCATAGTCAGACCAACATTGCTACGACCCGTATTCGCACCGACAC | 2.06 ± 0.044 | -1.45 ± 0.25 |
| ACATTTGTTGATACAACCATAAAATGGTAATTCCACCCATACATTGATAATTATCACACCCAATTTAACTATAACGCTCTGATCATAGTCAGACCAACATTGCTACGACCCGTATTCGCACCGACAC | 0.391 ± 0.15 | -3.15 ± 0.33 |
| ACATTTGTTGATACAACCATAAAATGGTAATTCCACCCCTAAATTGATAATTATCACACCCAATTTAACTATAACGCTCTGATCATAGTCAGACCAACATTGCTACGACCCGTATTCGCACCGACAC | -0.518 ± 0.25 | -3.6 ± 0.27 |
| ACATTTGTTGATACAACCATAAAATGGTAATTCCACCCCTACATTGATAATTATCACACCCAATTTAACTATAACGCTCTGATCATAGTCAGACCAACATTGCTACGACCCGTATTCGCACCGACAC | -0.604 ± 0.45 | -3.92 ± 0.41 |
| ACATTTGTTGATACAACCATAAAATGTAAATTACACCCATAAATTGATAATTATCACACCCATAAATTGATATTGCCTCTGATCATAGTCAGACCAACATTGCTACGACCCGTATTCGCACCGACAC | -0.454 ± 0.18 | -0.732 ± 0.084 |
| ACATTTGTTGATACAACCATAAAATGTATTAATCACCCATAAATTGTATTAATTCACACCCATAAATTGTATAACGCTCTGATCATAGTCAGACCAACATTGCTACGACCCGTATTCGCACCGACAC | -2.39 ± 0.35 | -4.24 ± 0.14 |
